Blank lines part the entries; values can stand above or below the binder they belong to.
Tests used:
[1] = target: T1, human CD3 antigen on the surface of T cells (human, UniProt P07766 23-207); assay: Scatchard analysis, 125I-labelled antibody on activated human T cells
T1 construct: whole, on cells; also called human CD3 complex
Description: Figure 11A: FIG. 11. (A). Displacement assay to compare the relative affinity of HuM291-Fos and M291 for their antigen. Sub-saturation amounts of murine M291-FITC on human T cells were displaced by increasing amounts of murine M291 or HuM291-Fos. T cells were resuspended in complete media at 2.5 ×10^6/ml. Dilutions of the test (HuM291-Fos) or control (murine M291) antibody were added and incubated at 4° C. for 1 hour. A fixed, subsaturation amount of murine M291-FITC was added, and the cells were incubated at 4° C. for 1 hour, wash d, and resuspended in 1% paraformaldehyde. The cells were then analyzed using flow cytometry. Values expressed in % inhibition of fluorescence intensity compared to no competitive antibody control. (B). Scatchard plot analysis of the binding of ^125I-label d HuM291-Fos to activated human T cells. […] The cells were washed in binding buffer (2% horse serum in PBS containing 0.1% sodium azide) and counted. Nonspecific binding was determined by inhibiting the specific binding with an excess of nonlabeled HuM291-Fos. The apparent K_a and the number of binding sites were calculated from the slope and th X axis intercept, respectively, of the Scatchard plot. […]
The relative affinity of murine M291 and HuM291-Fos F(ab'-zipper)_2 for T cells was evaluated using the displacement assay described above. […]

[2] = target: 28/32 kDa heterodimeric protein on the surface of malignant B-cells; assay: Scatchard analysis, 125I-labelled antibody on Raji cells
[3] = target: 28/32 kDa heterodimeric protein on the surface of malignant B-cells; assay: whole cell indirect radioimmunoassay on HO-85 and Raji cells

T1 sequence (P07766 23-207): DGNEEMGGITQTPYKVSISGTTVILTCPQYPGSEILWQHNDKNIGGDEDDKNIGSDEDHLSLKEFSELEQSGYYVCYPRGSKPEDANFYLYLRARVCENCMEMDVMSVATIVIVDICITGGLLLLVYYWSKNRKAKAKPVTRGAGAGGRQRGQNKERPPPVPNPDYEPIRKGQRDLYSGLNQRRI

Ka [1]: ~1.1e+09 M⁻¹
B1: HuM291-Fos F(ab'-zipper)2 (antibody, V domains shown)
VH: QVQLVQSGAEVKKPGASVKVSCKASGYTFISYTMHWVRQAPGQGLEWMGYINPRSGYTHYNQKLKDKATLTADKSASTAYMELSSLRSEDTAVYYCARSAYYDYDGFAYWGQGTLVTVSS
VL: DIQMTQSPSSLSASVGDRVTITCSASSSVSYMNWYQQKPGKAPKRLIYDTSKLASGVPSRFSGSGSGTDFTLTISSLQPEDFATYYCQQWSSNPPTFGGGTKVEIKR
notes: Bivalent F(ab'-zipper)2 fragment without Fc; The heavy chain is the Fd-Fos (VH 1-120, CH1 121-218, modified hinge 219-238, Fos leucine zipper 239-279); 125I-labelled in the Scatchard analysis; also called humanized F(ab'-zipper)2 of M291

Ka [2]: 2.3e+08 M⁻¹
sites per cell (sites per cell) [2]: 500000
B2: humanized 1D10-IgG1 (antibody, V domains shown)
VH: QVQLQESGPGLVKPSETLSLTCTVSGFSLTNYGVHWVRQSPGKGLEWIGVKWSGGSTEYNAAFISRLTISKDTSKNQVSLKLNSLTAADTAVYYCARNDRYAMDYWGQGTLVTVSS
VL: DIQMTQSPSSLSASVGDRVTITCRASENIYSYLAWYQQKPGKAPKLLVSNAKTLAEGVPSRFSGSGSGKQFTLTISSLQPEDFATYYCQHHYGNSYPFGQGTKLEIKR

binding activity relative to tissue culture medium alone [3]: 5 times
B3: mouse 1D10 antibody (parent, IgG1/kappa) (antibody, V domains shown)
VH: QVQLKQSGPGLVQPSQSLSITCTGSGFSLTNYGVHWVRQSPGKGLEWLGVKWSGGSTEYNAAFISRLSISKDNSKSQVFFKMNSLQADDTAMYYCARNDRYAMDYWGQGTSVTVSS
VL: DIQMTQSPASLSASVGETVTITCRASENIYSYLAWYQQKQGKSPQLLVSNAKTLAEGVTSRFSGSGSGKQFSLKINSLQPEDFGNYYCQHHYGNSYPFGGGTKLEIK

Source: patent US7381803 (PROTEIN DESIGN LABS, dated 2008)
